Here are results for one molecule from paper PMC7596504, “Molecular mechanism of the MORC4 ATPase activation” (Nature Communications, 2020).

Assay [1] relates to NCP147. Briefly: EMSA with NCP147. The format is binding. The conditions noted are these: 5 nM 147 bp fluorescein-labeled NCP, pH 7.5, 4 °C. The procedure:
EMSAs were performed by mixing increasing amounts of MORC4 ATPase with 5 nM 147 bp fluorescein-labeled NCP in 25 mM Tris-HCl pH 7.5, 75 mM NaCl, 25 mM Tris-HCl pH 7.5, 0.005% Tween 20, and 10% glycerol buffer in a 12 μL reaction volume. Each sample was incubated at 4 °C for 5 min and then loaded onto a 5% native polyacrylamide gel. Electrophoresis was performed in 0.3× Tris-borate-EDTA (TBE) at 300 V for 90 min. Fluorescein fluorescence images were acquired with a Typhoon Phosphor Imager.
A general note: Mobility shift assays separate free from complexed probe on a gel.

Assay [2] deals with NCP147. Briefly: FRET, LexA titration into Cy3-Cy5 labeled NCP147. Type of assay: binding. The settings on record: addition of MORC4 ATPaseCW. The procedure: Histone octamers unlabeled or labeled with Cy5 at H2AK119 were prepared as previously described. NCPs were reconstituted by combining octamer with 1.25× excess DNA and performing slow salt dialysis. Free DNA was then separated from fully reconstituted NCPs by sucrose gradient purification. NCPs for fluorescence polarization assays were reconstituted from unlabeled octamer and 207 bp DNA containing the 601 Widom sequence flanked with a 30 bp linker on either side and internally labeled with Fluorescein 27 bp in from the 5′ end. Cy3-Cy5 labeled NCPs for FRET assays were reconstituted with Cy5 labeled octamer plus either 147 bp 601 Widom DNA containing a LexA transcription factor binding site at bases 8–27[34], or 252 bp DNA containing the 601 Widom sequence with a 75 bp linker at the 3′ end, a 30 bp linker at the 5’ end, and a Gal4 transcription factor binding site at bases 8–26 in the 601 Widom sequence. The 147 bp LexA-binding DNA was labeled with Cy3 on the 5′ end, and the 252 bp Gal4-binding DNA was internally labeled with Cy3 34 bp in from the 5′ end.
LexA was expressed in E. coli, separated from genomic DNA and the proteome by polyethyleneimine precipitation, and salted out with ammonium sulfate. LexA was resuspended in buffer A (20 mM potassium phosphate pH 7, 0.1 mM EDTA, 10% glycerol, 1 mM DTT) + 200 mM NaCl and purified by a linear gradient to A + 800 mM NaCl over either a cellulose phosphate or HiTrap Heparin HP column. […]
(§1) Cy3-Cy5 NCP FRET efficiency measurements were carried out on a Horiba Scientific Fluoromax 4. […] LexA titrations were carried out in 20 mM Tris pH 7.5, 75 mM NaCl, 10% glycerol, 0.00625% Tween 20 buffer with 5 nM 147 bp Cy3-Cy5 NCPs mixed in 20 µL reaction volumes and allowed to incubate for 5 mins at 4 °C before FRET of the sample was measured. […] Gal4 (1–147) titrations were carried out in 10 mM Tris pH 8, 130 mM NaCl, 10% glycerol, 0.0075% Tween 20 buffer with 1 nM 252 bp Cy3-Cy5 nucleosomes mixed in 60 µL reaction volumes and allowed to incubate for 10 mins at room temperature before FRET of the sample was measured. […]

The subject of the next assay is NCP252. Briefly: FRET, Gal4 titration into Cy3-Cy5 labeled NCP252. Type of assay: binding. The procedure: Histone octamers unlabeled or labeled with Cy5 at H2AK119 were prepared as previously described. NCPs were reconstituted by combining octamer with 1.25× excess DNA and performing slow salt dialysis. Free DNA was then separated from fully reconstituted NCPs by sucrose gradient purification. NCPs for fluorescence polarization assays were reconstituted from unlabeled octamer and 207 bp DNA containing the 601 Widom sequence flanked with a 30 bp linker on either side and internally labeled with Fluorescein 27 bp in from the 5′ end. […]
as §1

The subject of assay [3] is NCP147. Briefly: Fluorescence polarization binding to NCP147. In general terms: In fluorescence polarisation assays a small probe gives low polarisation when free and higher when bound to something large.
In the next assay the test system is O’RangeRuler 5 bp ladder. Briefly: EMSA with DNA ladder (minimum DNA length). The conditions noted are these: 5 bp ladder 50 ng, pH 7.5, 150 mM NaCl. The format is binding. The procedure:
EMSA experiments were performed essentially as described. In brief, increasing amounts of WT or mutant CW or ATPaseCW cassette of MORC4 were incubated with 147 bp 601 DNA (5 pmol) or 50 ng of O’RangeRuler 5 bp ladder (Thermo Scientific) in a DNA-binding buffer containing 20 mM Tris-HCl (pH 7.5), 150 mM NaCl, 2.5 mM MgCl2, and 2 mM DTT for 0.5 h on ice. The reaction mixtures were loaded on 5% native polyacrylamide gels, and electrophoresis was performed in 0.2× Tris-borate-EDTA (TBE) buffer at 100 V for 1.2 h on ice. Gels were stained with SYBR Gold (Invitrogen).

B1: ATPaseCW: ATPaseCW cassette (aa 29–486) of human MORC4 (Q8TE76) (protein)
chain: GIRLSTMSPRYLQSNSSSHTRPFSAIAELLDNAVDPDVSARTVFIDVEEVKNKSCLTFTDDGCGMTPHKLHRMLSFGFTDKVIKKSQCPIGVFGNGFKSGSMRLGKDALVFTKNGGTLTVGLLSQTYLECVQAQAVIVPIVPFNQQNKKMIITEDSLPSLEAILNYSIFNRENDLLAQFDAIPGKKGTRVLIWNIRRNKNGKSELDFDTDQYDILVSDFDTEEKMTGGVTSELPETEYSLRAFCGILYMKPRMKIFLRQKKVTTQMIAKSLANVEYDTYKPTFTNKQVRITFGFSCKNSNQFGIMMYHNNRLIKSFEKVGCQVKPTRGEGVGVIGVIECNFLKPAYNKQDFEYTKEYRLTINALAQKLNAYWKEKTSQDNFETSTVARPIPKVPDQTWVQCDECLKWRKLPGKIDPSMLPARWFCYYNSHPKYRRCSVPEEQELTDEDLCLSKAKKQE
modifications: left off: GST, end not stated, cleaved
Take B1: the “binding to NCP147 in EMSA” value in the assay with NCP147 [1] is listed as “bound to NCP147”. In addition, the “effect on binding of LexA to NCP147” value in the assay with NCP147 [2] is on record as “decrease in binding of LexA to NCP147”. Besides, in the assay on NCP252, the “effect on nucleosome unwrapping-wrapping equilibrium” value was “shifts the unwrapping-wrapping equilibrium toward the wrapped state”. For the same molecule, the “decrease in binding to NCP147 compared to NCP207” value in the assay with NCP147 [3] (NCP147 vs NCP207 (peer review file)) is on record as 2 fold. Further, in the assay on NCP147 [3] (fluorescence polarization, pH 7.5, 75 mM NaCl, room temperature, 10 min, mean of n = 3), the S1/2 turned out to be 0.4 µM. The “minimum DNA length for appreciable interaction” value with O’RangeRuler 5 bp ladder was not below 30 bp.
